Source: patent publication US11130793B2, “GLP-1/GLP-2 dual agonists” (Zealand Pharma A/S, priority 2016, dated 2021)
Square brackets hold non-standard residues; d marks the D form. Aib = CC(C)(N)C(=O)O

B1: Compound 2 (peptide)
peptide: H-H[Aib]EGTFSSELATILDEQAARDFIAWLIAHKITD-OH
SMILES: CC[C@H](C)[C@H](NC(=O)[C@H](CC(C)C)NC(=O)[C@H](Cc1c[nH]c2ccccc12)NC(=O)[C@H](C)NC(=O)[C@@H](NC(=O)[C@H](Cc1ccccc1)NC(=O)[C@H](CC(=O)O)NC(=O)[C@H](CCCNC(=N)N)NC(=O)[C@H](C)NC(=O)[C@H](C)NC(=O)[C@H](CCC(N)=O)NC(=O)[C@H](CCC(=O)O)NC(=O)[C@H](CC(=O)O)NC(=O)[C@H](CC(C)C)NC(=O)[C@@H](NC(=O)[C@@H](NC(=O)[C@H](C)NC(=O)[C@H](CC(C)C)NC(=O)[C@H](CCC(=O)O)NC(=O)[C@H](CO)NC(=O)[C@H](CO)NC(=O)[C@H](Cc1ccccc1)NC(=O)[C@@H](NC(=O)CNC(=O)[C@H](CCC(=O)O)NC(=O)C(C)(C)NC(=O)[C@@H](N)Cc1c[nH]cn1)[C@@H](C)O)[C@@H](C)O)[C@@H](C)CC)[C@@H](C)CC)C(=O)N[C@@H](C)C(=O)N[C@@H](Cc1c[nH]cn1)C(=O)N[C@@H](CCCCN)C(=O)N[C@H](C(=O)N[C@H](C(=O)N[C@@H](CC(=O)O)C(=O)O)[C@@H](C)O)[C@@H](C)CC
B2: Compound 34 (peptide)
peptide: H-H[Aib]EGTFTSELATILDEQAARDFISWLIAHKITD-OH
SMILES: CC[C@H](C)[C@H](NC(=O)[C@H](CC(C)C)NC(=O)[C@H](Cc1c[nH]c2ccccc12)NC(=O)[C@H](CO)NC(=O)[C@@H](NC(=O)[C@H](Cc1ccccc1)NC(=O)[C@H](CC(=O)O)NC(=O)[C@H](CCCNC(=N)N)NC(=O)[C@H](C)NC(=O)[C@H](C)NC(=O)[C@H](CCC(N)=O)NC(=O)[C@H](CCC(=O)O)NC(=O)[C@H](CC(=O)O)NC(=O)[C@H](CC(C)C)NC(=O)[C@@H](NC(=O)[C@@H](NC(=O)[C@H](C)NC(=O)[C@H](CC(C)C)NC(=O)[C@H](CCC(=O)O)NC(=O)[C@H](CO)NC(=O)[C@@H](NC(=O)[C@H](Cc1ccccc1)NC(=O)[C@@H](NC(=O)CNC(=O)[C@H](CCC(=O)O)NC(=O)C(C)(C)NC(=O)[C@@H](N)Cc1c[nH]cn1)[C@@H](C)O)[C@@H](C)O)[C@@H](C)O)[C@@H](C)CC)[C@@H](C)CC)C(=O)N[C@@H](C)C(=O)N[C@@H](Cc1c[nH]cn1)C(=O)N[C@@H](CCCCN)C(=O)N[C@H](C(=O)N[C@H](C(=O)N[C@@H](CC(=O)O)C(=O)O)[C@@H](C)O)[C@@H](C)CC
B3: Compound 35 (peptide)
peptide: H-H[Aib]EGTFTSELATILDEQAARDFINWLKAHKITD-OH
SMILES: CC[C@H](C)[C@H](NC(=O)[C@H](Cc1ccccc1)NC(=O)[C@H](CC(=O)O)NC(=O)[C@H](CCCNC(=N)N)NC(=O)[C@H](C)NC(=O)[C@H](C)NC(=O)[C@H](CCC(N)=O)NC(=O)[C@H](CCC(=O)O)NC(=O)[C@H](CC(=O)O)NC(=O)[C@H](CC(C)C)NC(=O)[C@@H](NC(=O)[C@@H](NC(=O)[C@H](C)NC(=O)[C@H](CC(C)C)NC(=O)[C@H](CCC(=O)O)NC(=O)[C@H](CO)NC(=O)[C@@H](NC(=O)[C@H](Cc1ccccc1)NC(=O)[C@@H](NC(=O)CNC(=O)[C@H](CCC(=O)O)NC(=O)C(C)(C)NC(=O)[C@@H](N)Cc1c[nH]cn1)[C@@H](C)O)[C@@H](C)O)[C@@H](C)O)[C@@H](C)CC)C(=O)N[C@@H](CC(N)=O)C(=O)N[C@@H](Cc1c[nH]c2ccccc12)C(=O)N[C@@H](CC(C)C)C(=O)N[C@@H](CCCCN)C(=O)N[C@@H](C)C(=O)N[C@@H](Cc1c[nH]cn1)C(=O)N[C@@H](CCCCN)C(=O)N[C@H](C(=O)N[C@H](C(=O)N[C@@H](CC(=O)O)C(=O)O)[C@@H](C)O)[C@@H](C)CC
B4: Compound 36 (peptide)
peptide: H-H[Aib]EGTFTSELATILDEQAARDFINWLKSYKITD-OH
SMILES: CC[C@H](C)[C@H](NC(=O)[C@H](Cc1ccccc1)NC(=O)[C@H](CC(=O)O)NC(=O)[C@H](CCCNC(=N)N)NC(=O)[C@H](C)NC(=O)[C@H](C)NC(=O)[C@H](CCC(N)=O)NC(=O)[C@H](CCC(=O)O)NC(=O)[C@H](CC(=O)O)NC(=O)[C@H](CC(C)C)NC(=O)[C@@H](NC(=O)[C@@H](NC(=O)[C@H](C)NC(=O)[C@H](CC(C)C)NC(=O)[C@H](CCC(=O)O)NC(=O)[C@H](CO)NC(=O)[C@@H](NC(=O)[C@H](Cc1ccccc1)NC(=O)[C@@H](NC(=O)CNC(=O)[C@H](CCC(=O)O)NC(=O)C(C)(C)NC(=O)[C@@H](N)Cc1c[nH]cn1)[C@@H](C)O)[C@@H](C)O)[C@@H](C)O)[C@@H](C)CC)C(=O)N[C@@H](CC(N)=O)C(=O)N[C@@H](Cc1c[nH]c2ccccc12)C(=O)N[C@@H](CC(C)C)C(=O)N[C@@H](CCCCN)C(=O)N[C@@H](CO)C(=O)N[C@@H](Cc1ccc(O)cc1)C(=O)N[C@@H](CCCCN)C(=O)N[C@H](C(=O)N[C@H](C(=O)N[C@@H](CC(=O)O)C(=O)O)[C@@H](C)O)[C@@H](C)CC
B5: Compound 37 (peptide)
peptide: H-H[Aib]EGTFTSELATILDEQAARDFINWLKEQKITD-OH
SMILES: CC[C@H](C)[C@H](NC(=O)[C@H](Cc1ccccc1)NC(=O)[C@H](CC(=O)O)NC(=O)[C@H](CCCNC(=N)N)NC(=O)[C@H](C)NC(=O)[C@H](C)NC(=O)[C@H](CCC(N)=O)NC(=O)[C@H](CCC(=O)O)NC(=O)[C@H](CC(=O)O)NC(=O)[C@H](CC(C)C)NC(=O)[C@@H](NC(=O)[C@@H](NC(=O)[C@H](C)NC(=O)[C@H](CC(C)C)NC(=O)[C@H](CCC(=O)O)NC(=O)[C@H](CO)NC(=O)[C@@H](NC(=O)[C@H](Cc1ccccc1)NC(=O)[C@@H](NC(=O)CNC(=O)[C@H](CCC(=O)O)NC(=O)C(C)(C)NC(=O)[C@@H](N)Cc1c[nH]cn1)[C@@H](C)O)[C@@H](C)O)[C@@H](C)O)[C@@H](C)CC)C(=O)N[C@@H](CC(N)=O)C(=O)N[C@@H](Cc1c[nH]c2ccccc12)C(=O)N[C@@H](CC(C)C)C(=O)N[C@@H](CCCCN)C(=O)N[C@@H](CCC(=O)O)C(=O)N[C@@H](CCC(N)=O)C(=O)N[C@@H](CCCCN)C(=O)N[C@H](C(=O)N[C@H](C(=O)N[C@@H](CC(=O)O)C(=O)O)[C@@H](C)O)[C@@H](C)CC

These binders were tested against human glucagon-like peptide 1 receptor (GLP-1R) (human, UniProt P43220) (assay: cell-based or functional assay).
B1 was tested, and the “EC50 GLP-1 (nM); cAMP AlphaScreen” value was 0.046 nM.
In the case of B2, the “EC50 GLP-1 (nM); cAMP AlphaScreen” value is reported as 0.005 nM.
B3 was tested, and the “EC50 GLP-1 (nM); cAMP AlphaScreen” value was 0.006 nM.
With B4 the “EC50 GLP-1 (nM); cAMP AlphaScreen” value was 0.007 nM.
With B5 the “EC50 GLP-1 (nM); cAMP AlphaScreen” value was 0.007 nM.
With H-HGEGTFTSELATILDEQAARDFIAWLIAHKITD-OH [Compound 38] the “EC50 GLP-1 (nM); cAMP AlphaScreen” value was 0.008 nM.

The binders below were run against T1, human GLP-2 receptor (hGLP2-R) (human, UniProt O95838) (assay: cell-based or functional assay).
T1 sequence: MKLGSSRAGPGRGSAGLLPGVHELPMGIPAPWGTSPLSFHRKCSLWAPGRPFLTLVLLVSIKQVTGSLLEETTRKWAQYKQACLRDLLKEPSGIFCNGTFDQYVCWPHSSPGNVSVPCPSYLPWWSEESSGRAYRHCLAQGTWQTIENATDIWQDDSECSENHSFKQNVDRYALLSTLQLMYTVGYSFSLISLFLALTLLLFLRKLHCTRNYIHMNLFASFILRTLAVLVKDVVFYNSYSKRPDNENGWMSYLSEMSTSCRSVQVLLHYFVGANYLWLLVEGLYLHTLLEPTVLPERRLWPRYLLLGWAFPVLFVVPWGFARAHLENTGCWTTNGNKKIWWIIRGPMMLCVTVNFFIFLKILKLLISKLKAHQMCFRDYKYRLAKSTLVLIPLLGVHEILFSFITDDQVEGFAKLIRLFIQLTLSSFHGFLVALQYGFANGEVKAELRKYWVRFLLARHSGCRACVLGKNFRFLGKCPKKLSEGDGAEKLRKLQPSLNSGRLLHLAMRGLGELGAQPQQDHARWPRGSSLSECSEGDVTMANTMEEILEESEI
With B1 the “EC50 GLP-2 (nM); cAMP AlphaScreen” value was 0.034 nM.
For B2, the “EC50 GLP-2 (nM); cAMP AlphaScreen” value was 0.049 nM.
With B3 the “EC50 GLP-2 (nM); cAMP AlphaScreen” value was 0.048 nM.
With B4 the “EC50 GLP-2 (nM); cAMP AlphaScreen” value was 0.11 nM.
B5 was tested, and the “EC50 GLP-2 (nM); cAMP AlphaScreen” value was 0.16 nM.
H-HGEGTFTSELATILDEQAARDFIAWLIAHKITD-OH [Compound 38] was tested, and the “EC50 GLP-2 (nM); cAMP AlphaScreen” value was 0.043 nM.
